Data: patent publication US20250043002A1 (Regeneron, published 2025)

B1: REGN6192 (bispecific antibody, human IgG4 S228P, kappa)
heavy 1: EVQLVESGGGLVQPGRSLRLSCAASGFTFDDYALHWVRQAPGKGLEWVSGISWTGGTIDYADSVKGRFTISRDNAKNSLYLQMSSLRTEDTAIYYCTRDIRGNWKYGGWFDPWGQGTLVTVSSASTKGPSVFPLAPCSRSTSESTAALGCLVKDYFPEPVTVSWNSGALTSGVHTFPAVLQSSGLYSLSSVVTVPSSSLGTKTYTCNVDHKPSNTKVDKRVESKYGPPCPPCPAPPVAGPSVFLFPPKPKDTLMISRTPEVTCVVVDVSQEDPEVQFNWYVDGVEVHNAKTKPREEQFNSTYRVVSVLTVLHQDWLNGKEYKCKVSNKGLPSSIEKTISKAKGQPREPQVYTLPPSQEEMTKNQVSLTCLVKGFYPSDIAVEWESNGQPENNYKTTPPVLDSDGSFFLYSRLTVDKSRWQEGNVFSCSVMHEALHNHYTQKSLSLSLGK
heavy 2: EVQLVESGGGLVQPGGSLRLSCAASGFTFSTYAMTWVRQAPGKGLEWVSFISGSGDNTYYADSVKGRFTISRDNSKNTLYLQMNSLRADDSAIYHCAKDSGYCSSGGCSLYFYYGMDVWGQGTTVTVSSASTKGPSVFPLAPCSRSTSESTAALGCLVKDYFPEPVTVSWNSGALTSGVHTFPAVLQSSGLYSLSSVVTVPSSSLGTKTYTCNVDHKPSNTKVDKRVESKYGPPCPPCPAPPVAGPSVFLFPPKPKDTLMISRTPEVTCVVVDVSQEDPEVQFNWYVDGVEVHNAKTKPREEQFNSTYRVVSVLTVLHQDWLNGKEYKCKVSNKGLPSSIEKTISKAKGQPREPQVYTLPPSQEEMTKNQVSLTCLVKGFYPSDIAVEWESNGQPENNYKTTPPVLDSDGSFFLYSRLTVDKSRWQEGNVFSCSVMHEALHNRFTQKSLSLSPGK
light: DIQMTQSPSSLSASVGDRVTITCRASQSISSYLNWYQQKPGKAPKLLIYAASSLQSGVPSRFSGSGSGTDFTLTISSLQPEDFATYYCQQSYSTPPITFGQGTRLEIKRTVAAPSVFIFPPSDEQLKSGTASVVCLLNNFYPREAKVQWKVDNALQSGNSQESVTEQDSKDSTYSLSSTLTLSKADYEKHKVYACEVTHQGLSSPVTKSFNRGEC
notes: common light chain 1-39; also called PD-L1×CD28; anti-PD-L1 × anti-CD28 bispecific antibody
B2: REGN6194 (bispecific antibody, human IgG4 S228P, kappa)
heavy 1: QVQLVQSGTEVKKPGASVKVSCKASGYTFTAYYMHWVRQAPGQGLDWMGWISPNSGFTNYAQKFQGRVTMTRDTSINTFYMELSGLRSDDTAVYYCAREGSTHHNSFDPWGQGTLVTVSSASTKGPSVFPLAPCSRSTSESTAALGCLVKDYFPEPVTVSWNSGALTSGVHTFPAVLQSSGLYSLSSVVTVPSSSLGTKTYTCNVDHKPSNTKVDKRVESKYGPPCPPCPAPPVAGPSVFLFPPKPKDTLMISRTPEVTCVVVDVSQEDPEVQFNWYVDGVEVHNAKTKPREEQFNSTYRVVSVLTVLHQDWLNGKEYKCKVSNKGLPSSIEKTISKAKGQPREPQVYTLPPSQEEMTKNQVSLTCLVKGFYPSDIAVEWESNGQPENNYKTTPPVLDSDGSFFLYSRLTVDKSRWQEGNVFSCSVMHEALHNHYTQKSLSLSLGK
heavy 2: QVQLQESGPGLVKPSETLSLTCTVSGGSISSYYWSWIRQPPGKGLEWIGYIYYSGITHYNPSLKSRVTISVDTSKIQFSLKLSSVTAADTAVYYCARWGVRRDYYYYGMDVWGQGTTVTVSSASTKGPSVFPLAPCSRSTSESTAALGCLVKDYFPEPVTVSWNSGALTSGVHTFPAVLQSSGLYSLSSVVTVPSSSLGTKTYTCNVDHKPSNTKVDKRVESKYGPPCPPCPAPPVAGPSVFLFPPKPKDTLMISRTPEVTCVVVDVSQEDPEVQFNWYVDGVEVHNAKTKPREEQFNSTYRVVSVLTVLHQDWLNGKEYKCKVSNKGLPSSIEKTISKAKGQPREPQVYTLPPSQEEMTKNQVSLTCLVKGFYPSDIAVEWESNGQPENNYKTTPPVLDSDGSFFLYSRLTVDKSRWQEGNVFSCSVMHEALHNRFTQKSLSLSPGK
light: not shown
notes: also called PD-L1×CD28; anti-PD-L1 × anti-CD28 bispecific antibody
B3: mAb14226 (antibody, V domains shown)
VH: QVQLQESGPGLVKPSETLSLTCTVSGGSISSYYWSWIRQPPGKGLEWIGYIYYSGITHYNPSLKSRVTISVDTSKIQFSLKLSSVTAADTAVYYCARWGVRRDYYYYGMDVWGQGTTVTVSS
VL: not shown
notes: Bivalent parental antibody; also called parental bivalent anti-CD28 antibody; CD28 bivalent control antibody
B4: mAb14193 (antibody, V domains shown)
VH: EVQLVESGGGLVQPGGSLRLSCAASGFTFSTYAMTWVRQAPGKGLEWVSFISGSGDNTYYADSVKGRFTISRDNSKNTLYLQMNSLRADDSAIYHCAKDSGYCSSGGCSLYFYYGMDVWGQGTTVTVSS
VL: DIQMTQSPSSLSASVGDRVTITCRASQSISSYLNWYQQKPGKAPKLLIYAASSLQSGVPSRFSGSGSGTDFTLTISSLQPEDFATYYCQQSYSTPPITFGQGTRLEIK
notes: as for B3
B5: mAb14216 (antibody, V domains shown)
VH: EVQLVESGGGLVQPGGSLRLSCAASGFTFSRNNMHWVRQAPGKGLEYVSGISSNGGRTYYADSVKGRFTISRDNSKNTLYLQMGGLRAADMAVYFCTRDDELLSFDYWGQGTLVTVSS
VL: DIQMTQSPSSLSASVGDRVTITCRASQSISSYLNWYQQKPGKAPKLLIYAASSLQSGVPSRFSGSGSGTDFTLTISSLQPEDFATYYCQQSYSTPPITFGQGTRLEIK
notes: as for B3

What was measured:
[1] = target: T1, human CD28 on cells (endogenous on Jurkat/NFkB-Luc cells; human primary CD4+ T cells) (human, UniProt P10747 19-220); test: cell-based or functional assay
[2] = target: T2, human PD-L1 expressed on cells (HEK293/hCD20/hPSMA/hPD-L1; WSU-DLCL2/hPD-L1) (human, UniProt Q9NZQ7 19-290); test: flow cytometry, HEK293/hCD20/hPSMA/hPD-L1 cells
T2 construct: whole, on cells; also called human programmed death ligand-1
T2 sequence (Q9NZQ7 19-290): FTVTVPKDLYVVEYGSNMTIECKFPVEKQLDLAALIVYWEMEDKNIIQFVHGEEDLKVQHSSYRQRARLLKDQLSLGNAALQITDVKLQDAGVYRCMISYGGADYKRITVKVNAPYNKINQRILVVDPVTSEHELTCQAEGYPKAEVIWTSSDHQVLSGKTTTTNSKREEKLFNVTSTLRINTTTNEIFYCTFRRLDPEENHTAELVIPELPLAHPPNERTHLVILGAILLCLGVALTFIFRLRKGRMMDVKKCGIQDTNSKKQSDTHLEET

[3] = target: T1, human CD28 on cells (endogenous on …); test: cell-based or functional assay; remark: listed apart in the source
[4] = target: T2, human PD-L1 expressed on cells …; test: cell-based or functional assay
[5] = target: T3, hPD-L1-mFc: hPD-L1 extracellular domain (amino acids F19-T239) expressed with the Fc portion of mouse IgG2a … (human; mouse, UniProt Q9NZQ7 19-239); test: blocking ELISA, 0.7 nM hPD-L1-mFc on plate-coated hPD1-hFc
T3 construct: range 19-239; not shown: Fc portion of mouse IgG2a, amino acids E98-K330
T3 sequence (Q9NZQ7 19-239 limits assumed): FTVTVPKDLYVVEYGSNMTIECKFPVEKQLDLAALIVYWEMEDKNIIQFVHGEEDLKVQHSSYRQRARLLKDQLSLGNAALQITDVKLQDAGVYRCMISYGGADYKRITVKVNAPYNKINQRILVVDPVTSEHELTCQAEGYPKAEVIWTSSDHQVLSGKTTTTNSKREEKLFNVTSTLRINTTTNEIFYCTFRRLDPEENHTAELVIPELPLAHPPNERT

[6] = target: human CD28 expressed with a C-terminal murine Fc tag (hCD28.mFc) (human); test: SPR Biacore 25 C, hCD28.mFc captured by anti-mFc, antibody injected
[7] = target: human PD-L1 expressed with a C-terminal myc-myc-hexahistidine tag (hPD-L1.mmH) (human); test: SPR Biacore 25 C, antibody captured by anti-hFc, hPD-L1.mmH injected
Sequence of human PD-L1 expressed with a C-terminal myc-myc-hexahistidine tag (hPD-L1.mmH) (human) (chain, as listed by the source limits assumed): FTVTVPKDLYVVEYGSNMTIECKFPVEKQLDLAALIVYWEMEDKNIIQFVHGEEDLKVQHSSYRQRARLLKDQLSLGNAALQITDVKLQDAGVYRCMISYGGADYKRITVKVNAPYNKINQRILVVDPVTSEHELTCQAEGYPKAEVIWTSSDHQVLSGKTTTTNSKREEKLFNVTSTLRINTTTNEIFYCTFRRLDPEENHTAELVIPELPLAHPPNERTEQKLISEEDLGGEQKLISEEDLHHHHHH

[8] = target: T1, human CD28 on cells (endogenous on …); test: flow cytometry, Jurkat/NFkB-Luc cells (endogenous CD28)

Binder	IL2 release EC50, CD4+ T cells + HEK293/hCD20/hPSMA + CD20×CD3 [1] [nM]	IL2 release EC50, CD4+ T cells + HEK293/hCD20/hPSMA/hPD-L1 + CD20×CD3 [1] [nM]	IL2 release MAX (RLU), CD4+ T cells + HEK293/hCD20/hPSMA [1] [RLU]	IL2 release MAX (RLU), CD4+ T cells + HEK293/hCD20/hPSMA + CD20×CD3 [1] [RLU]	IL2 release MAX (RLU), CD4+ T cells + HEK293/hCD20/hPSMA/hPD-L1 [1] [RLU]	IL2 release MAX (RLU), CD4+ T cells + HEK293/hCD20/hPSMA/hPD-L1 + CD20×CD3 [1] [RLU]	Fold Change (max MFI over secondary antibody alone) [2] [fold]	Max gMFI [2] [gMFI]	NFkB-luciferase EC50, Jurkat/NFkB-Luc + HEK293/hCD20/hPSMA/hPD-L1 + CD20×CD3 [3] [nM]	NFkB-luciferase MAX (RLU), Jurkat/NFkB-Luc + HEK293/hCD20/hPSMA [3] [RLU]	NFkB-luciferase MAX (RLU), Jurkat/NFkB-Luc + HEK293/hCD20/hPSMA + CD20×CD3 [3] [RLU]	NFkB-luciferase MAX (RLU), Jurkat/NFkB-Luc + HEK293/hCD20/hPSMA/hPD-L1 [3] [RLU]	NFkB-luciferase MAX (RLU), Jurkat/NFkB-Luc + HEK293/hCD20/hPSMA/hPD-L1 + CD20×CD3 [3] [RLU]	% Blocking at 100 nM mAb [5] [%]	90 nM mAb Bind (RU) [6] [RU]	Kd [6] [nM]	koff [6] [s⁻¹]	Fold Change (max MFI over secondary antibody alone) [8] [fold]	Max gMFI [8] [gMFI]	EC50 [8] [nM]	other results
B1	16.4	0.104	3870	25200	2690	144000	876	1.4e+06	0.243	17200	444000	110000	2.32e+06	97	15.4	13.2	0.000342	24.1	10000		EC50 [2]: 2.5 nM; AP-1 luciferase EC50, WSU-DLCL2/hPD-L1 + Jurkat/AP1-Luc/hPD1 [4]: 0.183 nM; AP-1 luciferase MAX (RLU), WSU-DLCL2/hPD-L1 + Jurkat/AP1-Luc/hPD1 [4]: 1.19e+06 RLU; IC50 [5]: 1.2 nM; kon [6]: 25900 M⁻¹ s⁻¹; t1/2 [6]: 33.8 min; 30 nM hPD-L1.mmH Bind (RU) [7]: 34.9 RU; Kd [7]: 0.103 nM; koff [7]: 6.18e-05 s⁻¹; kon [7]: 600000 M⁻¹ s⁻¹; t1/2 [7]: 187 min
B2			5480	33700	2870	165000			0.028	11400	425000	16700	3.6e+06		39.4	24.5	0.00326	90.4	28000	7.5	kon [6]: 133000 M⁻¹ s⁻¹; t1/2 [6]: 3.5 min
B3	0.116	2.67	2910	64400	2860	38800			0.0875	73200	649000	60800	596000					101	43000	0.73	NFkB-luciferase EC50, Jurkat/NFkB-Luc + HEK293/hCD20/hPSMA [3]: 5.69 nM; NFkB-luciferase EC50, Jurkat/NFkB-Luc + HEK293/hCD20/hPSMA + CD20×CD3 [3]: 0.0514 nM
B4	24.9		3110	33600	3070	4720	3	4700						6				42.5	18000	21	binding result [2]: no binding
B5	9.54		3040	25600	2860	3620	1.2	1800						1				60.3	25000	9.3	binding result [2]: no binding
